Positions count from the first letter of the chain named.

The target of the experiment is FLAG-tagged Ang2 mutant A449 (alanine) (human) (UniProt O15123). Kind of experiment: ELISA, scFv coated, FLAG-tagged mutant Ang2, anti-FLAG-HRP.
Sequence of UniProt O15123 (O15123 other isoform, or with tags, fused parts or gaps mutant): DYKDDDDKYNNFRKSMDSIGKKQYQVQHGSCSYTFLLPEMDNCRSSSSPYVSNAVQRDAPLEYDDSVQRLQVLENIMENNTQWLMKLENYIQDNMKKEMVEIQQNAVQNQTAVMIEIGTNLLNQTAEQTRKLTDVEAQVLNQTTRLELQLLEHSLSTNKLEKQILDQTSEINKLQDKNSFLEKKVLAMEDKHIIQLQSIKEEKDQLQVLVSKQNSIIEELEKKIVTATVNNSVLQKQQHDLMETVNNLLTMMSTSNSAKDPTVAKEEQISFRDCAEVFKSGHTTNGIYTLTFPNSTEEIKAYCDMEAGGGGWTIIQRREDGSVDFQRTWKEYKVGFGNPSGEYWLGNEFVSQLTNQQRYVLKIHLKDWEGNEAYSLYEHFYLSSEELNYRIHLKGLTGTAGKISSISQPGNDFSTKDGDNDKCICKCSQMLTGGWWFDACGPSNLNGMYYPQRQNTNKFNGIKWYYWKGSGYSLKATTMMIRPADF

B1: SAIT-ANG2-AB-2-E6 (scFv form) (scFv, V domains shown)
VH: EVQLLESGGGLVQTGGSLRLSCAASGFTFSDYAMSWVRQAPGKGLEWVSAIYPDSGNKYYADSVKGRFTISRDNSKNTLYLQMNSLRAEDTAVYYCARHSSDPKVKSGYYDDGMDVWGQGTLVAVSS
VL: QSVLTQPPSASGTPGQRVTISCSGSSSNIGNNAVNWYQQLPGTAPKLLIYADSNRPSGVPDRFSGSKSGTSASLAISGLRSEDEADYYCGSWDYSLSGYVFGGGTKLTVLG
B1 had a Relative binding (%) with Mutant Ang2 compared to the binding with native Ang2 of 3.3%.

B2: SAIT-ANG2-AB-4-F5 (scFv form) (scFv, V domains shown)
VH: EVQLLESGGGLVQPGGSLRLSCAASGFTFSDYDMSWVRQAPGKGLEWVSSISHGDSNKYYADSVKGRFTISRDNSKNTLYLQMNSLRAEDTAVYYCAKSSGIQESPPTYYYYGMDVWGQGTLVTVSS
VL: B1 VL with N31S
Take B2: the Relative binding (%) with Mutant Ang2 compared to the binding with native Ang2 worked out at 14%.

B3: SAIT-ANG2-AB-3-D3 (scFv form) (scFv, V domains shown)
VH: EVQLLESGGGLVQPGGSLRLSCAASGFTFSDYDMSWVRQAPGKGLEWVSGISSDDGNTYYADSVKGRFTISRDNSKNTLYLQMNSLRAEDTAVYYCARPTIDKYTLRGYYSYGMDVWGQGTLVTVSS
VL: B1 VL with S23T, N31S, A33Y, N35S, A51S, S53N, N54K, S91T, Y94D, S97N
The molecule B3 displayed a Relative binding (%) with Mutant Ang2 compared to the binding with native Ang2 of 101%.

B4: SAIT-ANG2-AB-4-C11 (scFv form) (scFv, V domains shown)
VH: EVQLLESGGGLVQPGGSLRLSCAASGFTFSDYAMSWVRQAPGKGLEWVSSIYPDDGNTYYADSVKGRFTISRDNSKNTLYLQMNSLRAEDTAVYYCARHTSHHTSIDGYYYYGMDGWGQGTLVTVSS
VL: B1 VL with S23T, A33D, N35S, A51S, N54K
The molecule B4 gave a Relative binding (%) with Mutant Ang2 compared to the binding with native Ang2 of 4.8%.

B5: SAIT-ANG2-AB-7-C9 (scFv form) (scFv, V domains shown)
VH: EVQLLESGGGLVQPGGSLRLSCAASGFTFSNYAMSWVRQAPGKGLEWVSAISSGGGNIYYADSVKGRFTISRDNSKNTLYLQMNSLRAEDTAVYYCAKSGIQPSPPSMSSAYAMDVWGQGTLVTVSS
VL: B1 VL with A33D, N35Y, D52N, N54H, S91T
As for B5, the Relative binding (%) with Mutant Ang2 compared to the binding with native Ang2 worked out at 14.5%.

B6: SAIT-ANG2-AB-4-F11 (scFv form) (scFv, V domains shown)
VH: EVQLLESGGGLVQTGGSLRLSCAASGFTFSDYAMSWVRQAPGKGLEWVSSIYPDDGNTYYADSVKGRFTISRDNSKNTLYLQMNSLRAEDTAVYYCAKHPVRLNLHPMYYYYGMDVWGQGTLVTVSS
VL: B1 VL with S23T, N35S, A51S, N54Q, G90A, S91T, G98A
B6 returned a Relative binding (%) with Mutant Ang2 compared to the binding with native Ang2 of 16.7%.

These data come from patent US20150037343A1.
